These results are taken from patent US20050202403A1.

“And” between values parts separate entries of the source, which are not always exact repeats. Equal entries are not always repeated.

GPA1-Gα12 S288P chimera (Cp3822), sequence (P08539 1-41, stated change not applied): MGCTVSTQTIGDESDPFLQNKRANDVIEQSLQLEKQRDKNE
GPA1-Gα12 chimera (Cp3435), sequence (P08539 1-41, change not shown): as the sequence (P08539 1-41, stated change not applied) above
rat Gαs, wild type (Cp3098), sequence (P63095 2-394): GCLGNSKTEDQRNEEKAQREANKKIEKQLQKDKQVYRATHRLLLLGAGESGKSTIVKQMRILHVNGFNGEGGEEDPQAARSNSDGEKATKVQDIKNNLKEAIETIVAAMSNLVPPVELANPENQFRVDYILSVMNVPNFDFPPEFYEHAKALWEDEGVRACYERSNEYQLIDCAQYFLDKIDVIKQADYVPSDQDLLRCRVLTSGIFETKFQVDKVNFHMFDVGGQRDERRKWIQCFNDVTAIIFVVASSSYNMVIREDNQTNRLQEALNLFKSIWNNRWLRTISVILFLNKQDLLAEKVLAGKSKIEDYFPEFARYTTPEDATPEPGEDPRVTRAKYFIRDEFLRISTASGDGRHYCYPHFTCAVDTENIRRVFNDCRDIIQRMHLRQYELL
Gpal(1-43)-Gαi2(36-242)-GαoB(243-354) S280P chimera (Cp3635), sequence (P08539 1-43, stated change not applied): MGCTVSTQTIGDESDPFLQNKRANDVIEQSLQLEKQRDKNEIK
GPA1(20)-Gα16(S-P), sequence (P08539 1-20): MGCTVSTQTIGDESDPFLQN
GPA1(41)-Gαi1, sequence (P08539 1-41): as the sequence (P08539 1-41, stated change not applied) above
GPA1(41)-Gαi2-Gαo(40), sequence (P08539 1-41): as the sequence (P08539 1-41, stated change not applied) above

The target of one experiment is yeast Gβγ (STE4/STE18) (Saccharomyces cerevisiae) (UniProt P18851). The experiment is described as follows: cell-based or functional assay.
yeast Gβγ (STE4/STE18) (Saccharomyces cerevisiae), sequence (P18851 whole entry, chain 1 of 2): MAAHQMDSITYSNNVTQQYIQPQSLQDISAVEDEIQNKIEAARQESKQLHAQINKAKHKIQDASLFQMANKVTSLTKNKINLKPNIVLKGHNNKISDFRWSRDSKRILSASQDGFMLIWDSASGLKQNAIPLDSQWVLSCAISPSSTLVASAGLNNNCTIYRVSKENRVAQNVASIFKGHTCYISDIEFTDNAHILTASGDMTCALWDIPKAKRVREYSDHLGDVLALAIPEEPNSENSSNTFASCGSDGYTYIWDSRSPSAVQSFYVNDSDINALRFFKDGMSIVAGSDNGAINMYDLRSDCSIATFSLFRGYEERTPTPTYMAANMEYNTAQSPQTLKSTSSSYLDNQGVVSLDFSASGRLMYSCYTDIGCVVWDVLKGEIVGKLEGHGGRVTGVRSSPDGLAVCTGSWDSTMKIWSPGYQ
yeast Gβγ (STE4/STE18) (Saccharomyces cerevisiae), sequence (P18852 1-107, chain 2 of 2, further chain): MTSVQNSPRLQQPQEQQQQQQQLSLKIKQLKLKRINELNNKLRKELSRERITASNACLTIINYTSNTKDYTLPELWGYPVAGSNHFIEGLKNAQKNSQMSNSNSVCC
For “GPA1(20)-Gα16 (from UniProt P08539 1-20)”, the min[AT]i was 1 mM.
On to “GPA1(20)-Gα16(S-P) (from UniProt P08539 1-20)”, for which the min[AT]i is 0.5 mM.
The same measure, in the same setting: under “GPA1(41)-Gαi1 (from UniProt P08539 1-41)” stands 0.5 mM.
“GPA1(41)-Gαi2 (from UniProt P08539 1-41; P04899 36-355)”: the min[AT]i was determined as 0.5 mM.
Still for that read-out and setting: under “GPA1(41)-Gαi2-Gαo(40) (from UniProt P08539 1-41)” stands 1 mM; under “GPA1(41)-Gαi3 (from UniProt P08539 1-41; P08754 36-354)”, 0.5 mM.
Substance “GPA1-Gα12 S288P chimera (Cp3822) (from UniProt P08539 1-41)” had a growth of gpa1 fus1-HIS3 yeast on aminotriazole of 0.5 mM and a min[AT]i of 1 mM.
“GPA1-Gα12 chimera (Cp3435) (from UniProt P08539 1-41)”: the growth of gpa1 fus1-HIS3 yeast on aminotriazole is 2.5 mM and 1 mM.
Regarding “Gpal(1-43)-Gα16(45-374) S270P chimera (Cp3699) (from UniProt P08539 1-43; P30679 45-374)”, the min[AT]i was determined as 1 mM.
Same read-out and setting: to “Gpal(1-43)-Gαi2(36-242)-GαoB(243-354) S280P chimera (Cp3635) (from UniProt P08539 1-43)” belongs 1 mM.
Gαi1 gave a min[AT]i of 1.5 mM.
Regarding “rat Gαs D229V (from UniProt P63095 2-394)”, the growth of the gpal fusl-HIS3 strain on 3-AT turned out to be 0.2 mM.
With “rat Gαs E10K (from UniProt P63095 2-394)”, the growth of the gpal fusl-HIS3 strain on 3-AT worked out at 0.2 mM.
In the case of “rat Gαs N254D (from UniProt P63095 2-394)”, the growth of the gpal fusl-HIS3 strain on 3-AT was 0.2 mM.
Still for that read-out and setting: under “rat Gαs S286P (from UniProt P63095 2-394)” stands 0.2 mM.
Turning to “rat Gαs, wild type (Cp3098) (from UniProt P63095 2-394)”, the growth of a gpal fusl-HIS3 colony on media lacking histidine with 3-AT stood at 1 mM.

The next experiment deals with human adenosine A2a receptor (human) (UniProt P29274). The experiment is described as follows: cell-based or functional assay.
human adenosine A2a receptor (human), sequence (P29274 whole entry): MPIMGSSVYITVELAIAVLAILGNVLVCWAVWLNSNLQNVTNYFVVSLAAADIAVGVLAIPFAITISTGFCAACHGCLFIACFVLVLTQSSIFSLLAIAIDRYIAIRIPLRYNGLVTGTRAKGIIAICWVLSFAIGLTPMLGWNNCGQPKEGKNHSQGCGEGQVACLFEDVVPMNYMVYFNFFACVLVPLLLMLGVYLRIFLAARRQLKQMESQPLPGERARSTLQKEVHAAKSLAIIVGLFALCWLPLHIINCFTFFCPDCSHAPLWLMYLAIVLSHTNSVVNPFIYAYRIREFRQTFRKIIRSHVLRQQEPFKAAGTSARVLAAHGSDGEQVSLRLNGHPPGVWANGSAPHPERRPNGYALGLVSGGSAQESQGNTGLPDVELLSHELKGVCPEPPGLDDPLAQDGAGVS
On to “rat Gαs D229S (Cp3390) (from UniProt P63095 2-394)”, for which the fusl-lacZ reporter, β-galactosidase units on addition of NECA was determined as 10 fold.
Same read-out and setting: under “rat Gαs E10K (from UniProt P63095 2-394)” stands 10 fold; under “rat Gαs E10K D229S double mutant (from UniProt P63095 2-394)”, 10 fold; under “rat Gαs N254D (from UniProt P63095 2-394)”, 10 fold.
Substance “rat Gαs S286P (from UniProt P63095 2-394)” came in with a fusl-lacZ reporter, β-galactosidase units on addition of NECA of 10 fold.
